From a protein production outcome set (Wang et al. 2014)

Experiment: label from the status in PepcDB records

Row | Sequence | protein production
1 | GLTTLIEMIETLSATRTINEVADVVRGAARRILDADGVAFVMRDKDLCWYVDEDAIGPLWKGKRFPMDQCVAGRVMKSGRVVVCPDIYADPDMPHDAYRPTFVKSLAIAPVRPRDPIAAIAVYWARPYDPPPEVLRKLQVVARATASALESGRLNDYLAASLEHGHFLLRELD | failed
2 | MKMDYKEQSHIIPTYKRFDIVLEKGQGVYLFDDKAKKYLDFSSGIGVCALGYNHAKFNAKIKAQVDKLLHTSNLYYNENIAAAAKNLAKASALERVFFTNSGTESIEGAMKTARKYAFNKGVKGGQFIAFKHSFHGRTLGALSLTANEKYQKPFKPLISGVKFAKYNDISSVEKLVNEKTCAIILESVQGEGGINPANKDFYKALRKLCDEKDILLIADEIQCGMGRSGKFFAYEHAQILPDIMTSAKALGCGLSVGAFVINQKVASNSLEAGDHGSTYGGNPLVCAGVNAVFEIFKEEKILENVNKLTPYLEQSLDELINEFDFCKKRKGLGFMQGLSLDKSVKVAKVIQKCQENALLLISCGENDLRFLPPLILQKEHIDEMSEKLRKALKSF | not failed
3 | SEKLAASTEPQGPRPVLGRESVQVPDDQDFRSFRSECEAEVGWNLTYSRAGVSVWVQAVEMDRTLHKIKCRMECCDVPAETLYDVLHDIEYRKKWDSNVIETFDIARLTVNADVGYYSWRCPKPLKNRDVITLRSWLPMGADYIIMNYSVKHPKYPPRKDLVRAVSIQTGYLIQSTGPKSCVITYLAQVDPKGSLPKWVVNKSSQFLAPKAMKKMYKACLKYPEWKQKHLPHFKPWLHPEQSPLPSLALSELSVQHADSLENIDESAVAESREERMGGAGGEGSDDDTSLT | not failed
4 | MKQRVITAVIALILFIPIVLAGGLWMDWLTVLFAAVGISEIFLMKKQILVSFDFLLALLATLTWTVPDSFFKVFPSNITKLGVFYGIIMLFLTWTVLSKNKTTFDDVGVYILAALYIGIGFHYMAAIRAYPQNGLALLGYVFVVVWSTDIGAYMIGRKIGKHKLWPVISPNKTWEGSIGAVICALICSAIYLAILSSFNITFGVSELSMVVLAFFLSIVGQMGDLVESAYKRFYGVKDSGKILPGHGGILDRFDSMLFVLPVVAAILGIVH | failed
5 | MSLKFQKLSGLVLCFLIALPAWFLGQSFPLVGAPVFAIFLGMLLAIFYKNREHTEAGIAFTSKYILQFAVVLLGFGLNLSQVLTVGKTSLPIIVATISSSLLLAFLLQKWFKLDVNTATLVGVGSSICGGSAIAATAPVIQADGDEIAQSISVIFLFNILAALIFPTLGDMIGLSNHGFALFAGTAVNDTSSVTATAAAWDGLHHSNTLDGATIVKLTRTLAIIPITLGLSFYQVYKTKKVGKNQQHTVKLKKVFPMFILYFILASIITTILTALGVNPIFFTPLKTLSKFCIVMAMGAIGLNTNIVKLVKTGGQAIVLGASCWIVITLVSLGMQHLLGIW | failed
6 | MKTAELIFVPLPETGHLLSTIEFGKRLLNLDRRISMITILSMNLPYAPHADASLASLTASEPGIRIISLPEIHDPPPIKLLDTSSETYILDFIHKNIPCLRKTIQDLVSSSSSSGGGSSHVAGLILDFFCVGLIDIGREVNLPSYIFMTSNFGFLGVLQYLPERQRLTPSEFDESSGEEELHIPAFVNRVPAKVLPPGVFDKLSYGSLVKIGERLHEAKGILVNSFTQVEPYAAEHFSQGRDYPHVYPVGPVLNLTGRTNPGLASAQYKEMMKWLDEQPDSSVLFLCFGSMGVFPAPQITEIAHALELIGCRFIWAIRTNMAGDGDPQEPLPEGFVDRTMGRGIVCSWAPQVDILAHKATGGFVSHCGWNSVQESLWYGVPIATWPMYAEQQLNAFEMVKELGLAVEIRLDYVADGDRVTLEIVSADEIATAVRSLMDSDNPVRKKVIEKSSVARKAVGDGGSSTVATCNFIKDILGDHF | failed
7 | MLPTKINLIRLRRELAMLRRIRRVMEEKREVILHYITSMAAEYVRYQREVYSELERIYQNYYLGVAAEGIERARAFTAPAEGSLEVDVSTRTLFAVKTPVFSLREETVPPLPLPAGSDPKLVQSILDMRSILDKLLKLAEYEETLQRLISELKDTQRLINALDYVILPSYQNAIKFIKLVLEDRMREDFVRLKIIKRKMEAKTQLEHHHHHH | not failed
8 | MENETGGKDREVVEAVTNSEPGNGDGFAKKGDSYDDKLPSENVDKHMENEANEKEKEEDGAADELCALQDALETTLFQHLSNYAQKQMLQKLRSLRAKERKELSGEWKSLLAQEALLKSKKYSFSAELANATFHTWEEETRRMVL | not failed
9 | MSLDSALRSRIETLLHSNRVVLFMKGRPGMPQCGFSAKAAGILQALGVEYAHVNVLDDQEIREGIKRYGDWPTIPQLYIDGELIGGSDIVSQMYENGELSTLLGVAAPDLTPPSITITPTAVEMLKGTLANAPGSTLALSIDSRFQPTFELAPINTQAIAAEYNGLRVQFDLASARRAEGITIDWVDDIRGQGLVIDNPNAPQPIQELSPGDAAAQVDAGVLTLVDVRPADERAVASVAVPFRTMDGGERAVLEQLPKGTPLAFLCHHGGRSLQAAEHFRSLGFTSIYNIGGGIDAWSTQVDPGVPKY | failed
10 | MTEARAGLFARRRYLPALAVLYAALWLALAIEPHDRSDWLLENALVLGFGVALYATRRWFVFSRVSYTLIFLYLCLHAVGAHYTYSLVPYDAWWQRLTGHSLDQLLGWERNQFDRLVHFSYGLLLAYPIREIFLRVVDVRGFWGYLLPLDVALSTSALYELIEWGAAEFFGGELGVAYLGTQGDIWDAQKDMALAGLGALIAMLLTALFNRGARRDPARDWVDRMKPGHT | failed
11 | MENKEISYEIIDFSGETNVQFRTSVDPGSYIPTHWHRAIEIIYMQEGSLDVIVESESFTIYKGDCILVNGNVLHSTKCTAPNTAILLQIPLNFMEKYIPNLGQLIFLWDYRTEDPVKKTKLMMLKTTLEQLQVINDIQPDGYLLRFNSLIFELMFQLYHNFSVQVFPQDINHKKKEMDRLDP | not failed
12 | RGLALCREHYLDWFVKETERAIRRHRMLLPGERVLVAVSGGKDSLALWDVLSRLGYQAVGLHIELGIGEYSKRSLEVTQAFARERGLELLVVDLKEAYGFGVPELARLSGRVACSACGLSKRYIINQVAVEEGFRVVATGHNLDDEAAVLFGNLLNPQEETLSRQGPVLPEKPGLAARVKPFYRFSEREVLSYTLLRGIRYLHEEC | failed
13 | YETIIIHRHQRPDPDAIGSQVGLAELLRASFPEKNIYQVGGPVEGLEFLAEMDVITDDVYRGALVIVTDTANAPRISDARFSLGDQLIKIDHHPNDEPYGDLVWVNTNASSCSEIIVDFWQQHLAELTMTDNAARLLYAGIVGDTGRFLYPSTSAHTLAVAAQLRTFNFNAADLNRELDQMP | not failed
14 | MTYLVTGATGGLGGYALNYLKELVPMSDIYALVRSKEKGADLKAAGFNIRVGDYSDAESMKQAFAGIDRVLFVSGAPGNRQVEHENVINAAKKAGVSYIAYTSFAGADKSTSALAEDHFFTEKVIEKSGIAHTFLRNNWYFENEMPMIGGALSAGKFVYAAENGKVGWALKREYAEVAAKAVAGAGFPEILELSGPLMTYEELTKALKEATGKDFDVISSDDKGFVENLVSVGLPQPVAEMFLSFQHDIKNDQLDVTSDDFEKALGKPLTNRVDALRELLKLEHHHHHH | not failed
15 | EPVLCSRTTCRAVLNPLCQVDYRAKLWACNFCYQRNQFPPSYAGISELNQPA | not failed
16 | MLVTGVARQLGGRFVRRIQRDPNVDRVIAVDAVRPEHHLGGADFIQADIRQPTIARVLAEHSVDTVVHMDVTGTALGTGSRATVKETNVIGTMQLLGACQKSPTVKRLVVKSSTNVYGSAPRDPAVFTETTPPKSLPSGGFAKDTVEVEGYVRGFARRRPDVAVCVLRFANILGPSADSPLASYFSLPVLPTVFGYDPRLQFAHEDDVIDVLRIASYEPRRGTLNSGTFNVAGDGVLLLSQCARRLGRPTVPLLLPAVTWVGSAVRTLGMTDFSPEQIRLLTHGRVVATNQMRETLGYVPKYTTAETFADFARSRGPGLLPPEALAGAVDRIAALPALGGGHPPTQSAN | failed
17 | MSLNMFWFLPTHGDGHYLGTEEGSRPVDHGYLQQIAQAADRLGYTGVLIPTGRSCEDAWLVAASMIPVTQRLKFLVALRPSVTSPTVAARQAATLDRLSNGRALFNLVTGSDPQELAGDGVFLDHSERYEASAEFTQVWRRLLQRETVDFNGKHIHVRGAKLLFPAIQQPYPPLYFGGSSDVAQELAAEQVDLYLTWGEPPELVKEKIEQVRAKAAAHGRKIRFGIRLHVIVRETNDEAWQAAERLISHLDDETIAKAQAAFARTDSVGQQRMAALHNGKRDNLEISPNLWAGVGLVRGGAGTALVGDGPTVAARINEYAALGIDSFVLSGYPHLEEAYRVGELLFPLLDVAIPEIPQPQPLNPQGEAVANDFIPRKVAQS | not failed
18 | MLDGWQEIEADQIKRMQSALWHLLGNAIAYLSLFVIELVLATIGHSQSLHADAFNNFAGIVSSGLLSLGIWGGIHNHQSHQSKVTALDGWEAERRNRLMRFRLQDLFTLMSGVIMLVMAVQVIVSGVSNLFKSHTVQAVSGVTVWGAAIASIVMLVVWYFNRRGGQQLDNSTLLAAAKDSLSDALTSIGTLISLSGVLLFKFAWLDSVASIVIGFFIFAAGLQIFRDSGLQLINYSDPQVEKNYINTIQQIDGVNQVNAIDVQYSGSLVALSLVIAVSPRMTVAASFQLSERIEQVMRNQYGIIDTKVMFMPQT | failed
19 | MAVPPVEMYSGSFWNRMRKPLPLRTQVIRFTVVFVIVSFILAVALQITHERMPDPKVTKPLPDLGFELLTKISFLSVVTDVLIAFLSLLSFFTLWKLYLLHRHCVGSGEPELPCNIPGVSRFFLSVWLCKENCRIELRNIHTIAWIRFITSYALLLLFRSLVIVMTSMPTPVDKCQDPPKIENPVKNVILTVLTAGGGSIHCGDLMYSGHTVILTLHLMFHWIYGAMVHWSFRPVVTVVAIFSYYCIVASRSHYTDDVLVAIYLTIATFIAVGHNADGAPWQLQLFIRWLPCCGANSREVTEDSQPVMVAFKSEAVDELRERDDSAGLSGEVSTNEVVSHHHHHH | failed
20 | MIQLRAISRGMICGLLLSQLWSCSSTPLEPTAIEVDALFDDSLFKPVTNIPSVEDIFSLPSSVAVDVKRTYDRYAISTKNPLAVHEWLASYINANQSNGHSDFRYQDNLTQTASETFEQRAGNCMSLVVMTSALADIFNIGTEFQDIAIEPVWDKQGDFYLINGHVNLRLLPAQSVHTVYVSTHAILVDFMPERALRGLAKVQINRQTLTAMFYNNMAAESLVEGDLDHAYALVKAGLKSGHFSPALNTLAVIYRHKGDEKRAEQVYRYALKFDPDDMTTLFNLAVILDNQGRLEEWAQIHKKLELARIRNPYYYYDMGEQAYDEHQYREALAWYQRAVDKADYRHEFFFGLSRTYWALGDEKRAKQNMEKALALSREAADKHRCQAKLQAMRQH | failed
21 | MFVAFNFNKIESITTEKEFKIILNDQIALGKIPDFSKIKITIKVNKDDLKYLDLNKIILFIEASSIKIPGSYKLPIKIKNLNSIHIAEYKLSKTNVLLNLDNKVSKLVKIEPKFKLEHHHHHH | failed
22 | MTTRRLALFDLDHTLLPLDSDYQWADFLARTGRAGDPAEARRRNDDLMERYNRGELTAEQAAEFMLGLLAAHSPVELAAWHEEFMRDVIRPSLTVQAVDVVRGHLAAGDLCALVTATNSFVTAPIARAFGVQHLIATDPEYRDGRYTGRIEGTPSFREGKVVRVNQWLAGMGLALGDFAESYFYSDSVNDVPLLEAVTRPIAANPSPGLREIAQARGWQVIDLFDHLEDAKS | not failed
